This passage reports protein stability index results from the supplement of paper PMC10567573.

± gives the standard deviation.

A short description of this series: protein stability index of a GFP-peptide fusion (GPS, HEK-293T) (PSI 1-6); higher = more stable.
[1] abbreviates: treatment: DMSO, c terminus: a fixed tail appended.
[2] abbreviates: treatment: MLN4924 1 uM, 8 h, c terminus: a fixed tail appended.
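Note: 24-mer peptide tiles fused after GFP, lentivirally expressed, FACS-sorted into six equal bins by GFP/DsRed ratio, decoded by Illumina sequencing, PSI is the read-weighted mean bin number.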

SVTLEDVTPKKSPPPKTNLTPGQS [FAN1]: the protein stability index turned out to be 5.11 ± 0.18 under setting [1] and 5.24 ± 0.34 under setting [2].

SWNVAVKFLMARKFDVLRAIELFH [PTPN9]: the protein stability index reads like this: under setting [1], 2.18 ± 0.25; under setting [2], 2.31 ± 0.6.

For SYDELCFLEQRPQSPTLEFLLRNS [EDARADD], the protein stability index is, setting by setting: under setting [1], 3.1 ± 0.2; under setting [2], 3 ± 0.1.

Take TAAFTTAKAAALSTKTPAPCSEFM [SPAG8]: the protein stability index stood at 3.67 ± 0.14 under setting [1] and 3.84 ± 0.24 under setting [2].

With TAGPITGLVYRLNRFRVEISFHFE [TRIM43], the protein stability index was 3.02 ± 0.7 under setting [1] and 3.2 ± 0.52 under setting [2].

As for TEDLCEKPDDEVKETAHDLDVKSP [RIPK4], the protein stability index came to 5.8 ± 0.26 under setting [1] and 5.62 ± 0.27 under setting [2].

TEDVNTLDSEKRTPLHVAAFLGDA [ANKRD44]: the protein stability index under setting [1] was determined as 4.72 ± 0.3 and the protein stability index under setting [2] worked out at 4.74 ± 0.11.

For TEGVTQLKLTVVEDVTVGRRQAVA [ZFYVE21], the protein stability index by setting is: under setting [1], 4.07 ± 0.18; under setting [2], 4.12 ± 0.19.

TENRGNEKEFMKGNQLISNNIKFK [CLCN6]: the protein stability index reads like this: under setting [1], 4.43 ± 0.28; under setting [2], 4.52 ± 0.11.

Take TGGADAYYEMGIHCWDVAGAGIIV [IMPA1]: the protein stability index by setting is: under setting [1], 2.83 ± 0.79; under setting [2], 2.97 ± 0.85.

As to TGSYNNFFRMFDRNTKRDVTLEAS [PPP2R2B], the protein stability index is, setting by setting: under setting [1], 3.1 ± 0.26; under setting [2], 3.47 ± 0.33.

For the sequence THGVGLVLRVEQQPHLPLLSTLAG [SCNN1D], the protein stability index reads like this: under setting [1], 2.12 ± 0.23; under setting [2], 2.17 ± 0.15.

For the sequence THLLKQGRSSMGTGLSGGKRPSQE [CRY1], the protein stability index is 4.35 ± 0.18 under setting [1] and 4.53 ± 0.33 under setting [2].

With TIEERVNILFDFVKKKKEEGVIDS [EIF5], the protein stability index is 3.68 ± 0.065 under setting [1] and 3.39 ± 0.29 under setting [2].

In the case of TIHGLIYNALKLFMEMNQKLFDDC [PPP2R5C], the protein stability index under setting [1] was found to be 2.93 ± 0.33 and the protein stability index under setting [2] worked out at 2.89 ± 0.45.

Consider TIRSGISPNLNVVDGRLTYPTCGI [SASS6], for which the protein stability index runs as follows: under setting [1], 2.86 ± 0.42; under setting [2], 3.02 ± 0.26.

Consider TIVEEVQDGKVISSREQVHQTTR [KRT17], for which the protein stability index reads like this: (treatment: DMSO, c terminus: native) 5.03 ± 0.23; (treatment: MLN4924 1 uM, 8 h, c terminus: native) 5.08 ± 0.25.

As for TKKHIPYREHKSLTGTARYMSINT [CSNK1G1], the protein stability index runs as follows: under setting [1], 2.51 ± 0.15; under setting [2], 2.65 ± 0.23.

Take TKRSTLIISGVSKVPIAQDELALS [C2CD2L]: the protein stability index runs as follows: under setting [1], 3.16 ± 0.17; under setting [2], 3.14 ± 0.19.

As for TLDGYGIHPKSIDLDNYFTARRLL [NFE2L1], the protein stability index by setting is: under setting [1], 2.37 ± 0.41; under setting [2], 2.28 ± 0.26.

In the case of TLEGHQRAIMAHMTVEEIYKDRQK [FLOT1], the protein stability index is, setting by setting: under setting [1], 4.52 ± 0.13; under setting [2], 4.7 ± 0.19.

For TLGSSFIPGEHFWLLLLTRGLVGV [SPNS1], the protein stability index reads like this: under setting [1], 3.15 ± 1.4; under setting [2], 3.21 ± 0.84.

For TLHNLSHHREGLLAIFKSGGIPAL [CTNNB1], the protein stability index by setting is: under setting [1], 2.4 ± 0.11; under setting [2], 2.38 ± 0.24.

As for TLRQKTVDWRRVSRLQEDPEGTEN [SLA], the protein stability index was 4.87 ± 0.27 under setting [1] and 4.79 ± 0.52 under setting [2].

Regarding TLSWYFLLCVNYFFYGETVTDYFF [CDS2], the protein stability index amounted to 3.35 ± 0.64 under setting [1] and 3.48 ± 0.26 under setting [2].

With TLYRNRSNLETIFRIIDSDHSGFI [PPEF2], the protein stability index is 2.06 ± 0.4 under setting [1] and 1.99 ± 0.099 under setting [2].

For the sequence TMLIVHHRTHTGERPYGCDECEKA [ZNF649], the protein stability index was 3.75 ± 0.32 under setting [1] and 3.7 ± 0.49 under setting [2].

For TNFEGPPRLKEDQPWMVIEGIRQT [FSD1], the protein stability index came out at 3.5 ± 0.082 under setting [1] and 3.75 ± 0.33 under setting [2].

In the case of TPAEGDTEEDDGFVDILESDLKDD [CDC25B], the protein stability index reads like this: under setting [1], 5.34 ± 0.3; under setting [2], 5.62 ± 0.24.

Turning to TPTSPECDYSQYFKTIEELRDKIM [KRT15], the protein stability index reads like this: under setting [1], 3.4 ± 0.27; under setting [2], 3.6 ± 0.43.

Take TQSVMGFDPLPPSDTIYSYVRPER [TCF25]: the protein stability index is, setting by setting: under setting [1], 3.52 ± 0.32; under setting [2], 3.73 ± 0.12.

For TQVKVVKFSYMWTINNFSFCREEM [SPOPL], the protein stability index worked out at 2.65 ± 0.92 under setting [1] and 2.77 ± 0.72 under setting [2].

As for TRAPQRAHEVLQELRDISSMAMEY [FBXO28], the protein stability index under setting [1] turned out to be 3.44 ± 0.11 and the protein stability index under setting [2] stood at 3.48 ± 0.3.

Regarding TRKHHCRRCGKCFCDRCCSQKVPL [ZFYVE21], the protein stability index by setting is: under setting [1], 3.31 ± 0.27; under setting [2], 3.58 ± 0.19.

Regarding TRRAQADLAYQLQVAKTKQQIEEQ [FLOT1], the protein stability index stood at 4.82 ± 0.19 under setting [1] and 4.8 ± 0.2 under setting [2].

In the case of TSALFWEQHDLVYGDWTSGENSDG [CLPTM1], the protein stability index runs as follows: under setting [1], 4.17 ± 0.18; under setting [2], 4.34 ± 0.41.

On to TSLRLVFLLAFGLMIIVCIDQWKN [RETREG3], for which the protein stability index runs as follows: under setting [1], 2.21 ± 0.3; under setting [2], 2.03 ± 0.17.

In the case of TSVQEADETTRSDISERPSVDDIE [C2CD2L], the protein stability index was 5.57 ± 0.27 under setting [1] and 5.61 ± 0.19 under setting [2].

Regarding TVDKEVEIRKKVLKIYNKREEDFP [MNAT1], the protein stability index was 4.08 ± 0.17 under setting [1] and 4.27 ± 0.12 under setting [2].

TVILIESTNEITYGLPIMVTLMVA [CLCN6] gave a protein stability index under setting [1] of 3.47 ± 0.47 and a protein stability index under setting [2] of 3.32 ± 0.29.

TVPKNDADDESETPEELEEEIPVV [GLT8D2] yielded a protein stability index under setting [1] of 5.63 ± 0.12 and a protein stability index under setting [2] of 5.53 ± 0.26.

As for TVQEAATSRRARASKKTAQPWVEV [MFSD9], the protein stability index stood at 3.22 ± 0.14 under setting [1] and 3.1 ± 0.25 under setting [2].

As for TYKHINEVYYAKKKRRAQQAPPQD [DYRK1B], the protein stability index stood at 3.7 ± 0.085 under setting [1] and 3.66 ± 0.21 under setting [2].

TYRKVMNWKETLVFPPEVPISEKA [STK38L]: the protein stability index by setting is: under setting [1], 3.09 ± 0.29; under setting [2], 3.24 ± 0.29.

Regarding TYSGKAADVWSLGVMLYTLLVGRY [TRIB1], the protein stability index was found to be 2.42 ± 0.36 under setting [1] and 2.21 ± 0.042 under setting [2].

VAAAAAATTAATAAATTTTTTSAA [SNAP91]: the protein stability index by setting is: under setting [1], 5.39 ± 0.13; under setting [2], 5.34 ± 0.068.

With VALLTGKFSNIVDKFVIVDCRYPY [CDC25B], the protein stability index runs as follows: under setting [1], 2.45 ± 1.7; under setting [2], 2.59 ± 1.2.

As for VAPPAKQAQQKKAPAKKANSTTTA [BRD3], the protein stability index runs as follows: under setting [1], 5.11 ± 0.26; under setting [2], 5.26 ± 0.13.

VAQFVLTEGNPRWEQTHLTYRIEN [MMP1]: the protein stability index runs as follows: under setting [1], 2.35 ± 0.36; under setting [2], 2.35 ± 0.43.

As to VAVCPIPAAGLDVTQPCGDCGTIQ [HDAC6], the protein stability index turned out to be 3.46 ± 0.24 under setting [1] and 3.81 ± 0.41 under setting [2].

VCDSCHEAITDEERAPTATFHDSK [WDFY2]: the protein stability index under setting [1] worked out at 5.02 ± 0.21 and the protein stability index under setting [2] was 5.16 ± 0.13.

As for VCQEVLERSRDVVDDVSVSLRLWD [RHOBTB2], the protein stability index came out at 3.31 ± 0.19 under setting [1] and 3.44 ± 0.37 under setting [2].

For VDGVWTAQRPGITHGVGLVLRVEQ [SCNN1D], the protein stability index under setting [1] came out at 2.21 ± 0.35 and the protein stability index under setting [2] is 2.44 ± 0.24.

For VDRWPAPVPGKTLHLPIMGVVMKV [DENND6A], the protein stability index is, setting by setting: under setting [1], 2.63 ± 0.39; under setting [2], 2.4 ± 0.36.

Regarding VDYPLHDLVLHTNYTATVRGLRGP [TNXB], the protein stability index by setting is: under setting [1], 2.71 ± 0.19; under setting [2], 2.81 ± 0.24.

Sequence VEEGNVQTLLPAACLLQLAEIQEA [KLHL20] had a protein stability index under setting [1] of 3.58 ± 0.52 and a protein stability index under setting [2] of 3.84 ± 0.43.

Consider VETLVKKKIPIISNAMLVGDKLKF [ACSBG2], for which the protein stability index came out at 2.27 ± 0.38 under setting [1] and 2.61 ± 0.27 under setting [2].

Sequence VFITYSMDTAMEVVKFVNFLLVNG [TRAF3IP2] came in with a protein stability index under setting [1] of 3.39 ± 0.062 and a protein stability index under setting [2] of 2.06 ± 0.64.

Regarding VGVFLDFESGSVSFLNVTKSSLIW [TRIM43], the protein stability index reads like this: under setting [1], 3.08 ± 0.73; under setting [2], 2.506 ± 0.003.

VIEPVVENSGILQGKLIKRQRLAK [EFHC1] yielded a protein stability index under setting [2] of 3.68 ± 0.65.

As to VILGVTNPFFAKTLQHWPHIIRIG [DENND6A], the protein stability index under setting [1] came to 2.94 ± 0.67 and the protein stability index under setting [2] is 2.78 ± 0.46.

The sequence VINQADVRNNRSIIKQLKDVFERD [PLD5] had a protein stability index under setting [1] of 3.2 ± 0.2 and a protein stability index under setting [2] of 3.29 ± 0.35.

Turning to VIPFKVDTILKYLKDHFSHLLGIP [IQUB], the protein stability index runs as follows: under setting [1], 2.92 ± 0.12; under setting [2], 2.65 ± 0.18.

On to VITLDPQTASRSLVLSEDRKSVRY [TRIM15], for which the protein stability index by setting is: under setting [1], 3.44 ± 0.2; under setting [2], 3.64 ± 0.14.

Consider VKRLLRSDAEAVSTRWEVIAEDGT [TAF7L], for which the protein stability index turned out to be 3.69 ± 0.3 under setting [1] and 3.73 ± 0.64 under setting [2].

For the sequence VLALRNMKNLLFSEMWDIFLVRLL [MFSD9], the protein stability index runs as follows: under setting [1], 2.13 ± 0.44; under setting [2], 2.14 ± 0.49.

Take VLDLSKSLSAALLTAALLTFDTGC [POMT2]: the protein stability index runs as follows: under setting [1], 3.38 ± 0.38; under setting [2], 2.98 ± 0.2.

Take VLEEQLVKAKEQIENYKKQTRNGL [FUT8]: the protein stability index by setting is: under setting [1], 3.77 ± 0.1; under setting [2], 3.89 ± 0.35.

For the sequence VLKTRMALRKTGQYSGMLDCARRI [SLC25A25], the protein stability index under setting [1] was found to be 2.53 ± 0.17 and the protein stability index under setting [2] was determined as 2.78 ± 0.18.

Regarding VLLTQIESKKHQVETAFERLQQEL [TRIM15], the protein stability index came to 2.73 ± 0.27 under setting [1] and 2.77 ± 0.38 under setting [2].

With VLSSWSRAFVSIQEEMAEDPLTYK [RHOBTB2], the protein stability index was determined as 2.89 ± 0.14 under setting [1] and 3.17 ± 0.6 under setting [2].

Regarding VLTDSEGWILIDRCGKHFGTILNY [KCTD10], the protein stability index came to 2.37 ± 0.59 under setting [1] and 2.31 ± 0.2 under setting [2].
